Earlier results in paper PMC8859281.

Key:
κ-opioid receptor = κ-opioid receptor (UniProt P41145)
[1] = target: prokineticin receptor 2 (Homo sapiens) (UniProt Q8NFJ6)
[2] = target: prokineticin receptor 1 (Homo sapiens) (UniProt Q8TCW9)
prokineticin receptor 1 (Homo sapiens), sequence (Q8TCW9 whole entry): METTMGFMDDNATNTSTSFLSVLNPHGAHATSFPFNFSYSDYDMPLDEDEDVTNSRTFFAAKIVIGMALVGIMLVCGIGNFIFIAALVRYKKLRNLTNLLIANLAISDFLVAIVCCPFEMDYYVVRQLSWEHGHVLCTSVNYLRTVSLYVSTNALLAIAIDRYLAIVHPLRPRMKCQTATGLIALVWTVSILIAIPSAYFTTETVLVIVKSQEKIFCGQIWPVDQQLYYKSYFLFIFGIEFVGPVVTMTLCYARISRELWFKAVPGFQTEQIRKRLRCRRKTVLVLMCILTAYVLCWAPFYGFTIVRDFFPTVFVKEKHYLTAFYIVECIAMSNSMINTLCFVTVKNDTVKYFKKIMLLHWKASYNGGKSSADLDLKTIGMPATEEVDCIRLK

MIT1, sequence (P25687 whole entry): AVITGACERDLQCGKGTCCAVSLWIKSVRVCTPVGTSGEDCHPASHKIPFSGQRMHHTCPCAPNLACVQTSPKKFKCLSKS
κ-opioid receptor, sequence (P41145 whole entry): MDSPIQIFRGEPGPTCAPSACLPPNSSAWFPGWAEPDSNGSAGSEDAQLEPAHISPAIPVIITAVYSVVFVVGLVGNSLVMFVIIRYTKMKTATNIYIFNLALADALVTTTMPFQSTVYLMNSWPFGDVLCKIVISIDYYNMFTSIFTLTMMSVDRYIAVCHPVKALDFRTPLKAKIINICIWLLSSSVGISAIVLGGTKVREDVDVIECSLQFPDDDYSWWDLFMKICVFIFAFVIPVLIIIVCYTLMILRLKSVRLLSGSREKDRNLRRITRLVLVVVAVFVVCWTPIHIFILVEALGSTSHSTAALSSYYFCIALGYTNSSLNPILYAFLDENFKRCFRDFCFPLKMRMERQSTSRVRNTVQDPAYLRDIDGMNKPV
prokineticin receptor 2 (Homo sapiens), sequence (Q8NFJ6 whole entry): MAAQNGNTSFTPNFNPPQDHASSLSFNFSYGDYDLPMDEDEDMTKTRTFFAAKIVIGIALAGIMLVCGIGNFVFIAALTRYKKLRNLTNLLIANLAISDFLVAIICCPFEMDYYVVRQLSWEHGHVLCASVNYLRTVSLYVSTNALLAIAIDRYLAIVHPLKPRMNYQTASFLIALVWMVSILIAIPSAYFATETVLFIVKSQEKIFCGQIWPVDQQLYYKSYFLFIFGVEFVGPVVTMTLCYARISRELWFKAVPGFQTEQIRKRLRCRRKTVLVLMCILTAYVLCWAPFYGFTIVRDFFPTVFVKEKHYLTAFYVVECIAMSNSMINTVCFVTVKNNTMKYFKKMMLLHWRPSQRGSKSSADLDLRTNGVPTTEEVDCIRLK

Row | Substance | Ki (κ-opioid receptor) [nM] | Ki [1] [nM] | Ki [2] [nM]
1 | dynorphin A 1-17 (from UniProt P01213) | 0.28 | – | –
2 | MIT1 (from UniProt P25687) | – | 0.67 | 4.1
